Data taken from PMC11890623, “Pseudomonas aeruginosa acyl-CoA dehydrogenases and structure-guided inversion of their substrate specificity” (Nature Communications, 2025).

How the values were obtained:
[1] = target: FadE1 (PA0506), fatty acyl-CoA dehydrogenase of Pseudomonas aeruginosa (Pseudomonas aeruginosa PAO1); experiment: AUC; sedimentation at 50000 rpm, 20 °C; protein at 1 mg/mL in 20 mM Tris-HCl, 100 mM NaCl, 10 mM imidazole (pH 7.5); absorbance and interference scans; analysis with SEDFIT; His6 tags removed
[2] = system: T1, CCCCCCCCCCCCCCCC(=O)SCCNC(=O)CCNC(=O)[C@H](O)C(C)(C)COP(=O)(O)OP(=O)(O)OC[C@H]1O[C@@H](n2cnc3c(N)ncnc32)[C@H](O)[C@@H]1OP(=O)(O)O; experiment: Michaelis-Menten kinetics of purified enzyme (KM); assay type: biochemical, Pseudomonas aeruginosa; conditions: FAD
T1 construct: full-length ORF, His6 tag removed by TEV

[3] = system: T2, CCCCCCCC(=O)SCCNC(=O)CCNC(=O)[C@H](O)C(C)(C)COP(=O)(O)OP(=O)(O)OC[C@H]1O[C@@H](n2cnc3c(N)ncnc32)[C@H](O)[C@@H]1OP(=O)(O)O; experiment: purified protein; assay type: biochemical, Pseudomonas aeruginosa; conditions: FAD sandwiched between catalytic Glu441 and the FAD
T2 construct: full-length ORF, His6 tag removed by TEV

[4] = target: FadE2 (PA0508), fatty acyl-CoA dehydrogenase of Pseudomonas aeruginosa (Pseudomonas aeruginosa PAO1); experiment: AUC; sedimentation at 50000 rpm, 20 °C; protein at 1 mg/mL in 20 mM Tris-HCl, 100 mM NaCl, 10 mM imidazole (pH 7.5); absorbance and interference scans; analysis with SEDFIT; His6 tags removed

“FadE1 (PA0506), fatty acyl-CoA dehydrogenase of Pseudomonas aeruginosa (enzyme)” gave a stoichiometry N [1] of 2.

With FadE1 (Pseudomonas aeruginosa PAO1) the Km [2] was 16.36 ± 2.09 µM and the Km [3] was 12.29 ± 1.43 µM.

With “FadE2 (PA0508), fatty acyl-CoA dehydrogenase of Pseudomonas aeruginosa (enzyme)” the stoichiometry N [4] was 2.
